Measured values published in PMC8304084, “A Concerted Action of UBA5 C-Terminal Unstructured Regions Is Important for Transfer of Activated UFM1 to UFC1” (International Journal of Molecular Sciences, 2021).

Columns and labels:
Assay in all cases: ITC; VP-ITC, 25 °C; UBA5 peptides (~400 µM) titrated into 20–25 µM binding partner; 25 mM HEPES pH 7.5, 100 mM NaCl; one-site model; a single profile for each interaction
Conditions in all cases: both partners purified
[1] = target: T1, Full length UFM1, residues 2–83 (UniProt P61960 2-83)
T1 construct: N-terminal cloning artefact left after TEV cleavage (vector pET39_Ub19); UFM1 (ubiquitin fold modifier 1), residues 2–83 (processed form ending at Gly83); also called Ubiquitin fold modifier 1; source: E. coli T7 Express, purified (His Trap IMAC, TEV cleavage, reverse IMAC, Superdex gel filtration); not shown: modified ubiquitin tag (Ub19), N-terminal, cleaved

[2] = target: LC3B, residues 5–120 (UniProt Q9GZQ8 5-120)
[3] = target: T2, GABARAPL2, residues 3–116 (UniProt P60520 3-116)
T2 construct: N-terminal cloning artefact left after TEV cleavage (vector pET39_Ub19); source: E. coli T7 Express, purified (His Trap IMAC, TEV cleavage, reverse IMAC, Superdex gel filtration); not shown: modified ubiquitin tag (Ub19), N-terminal, cleaved

Measured: Kd

T1 sequence (P61960 other isoform, or with tags, fused parts or gaps): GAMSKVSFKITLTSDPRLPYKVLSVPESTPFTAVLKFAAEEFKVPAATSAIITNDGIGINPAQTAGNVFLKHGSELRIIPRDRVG
T2 sequence (P60520 other isoform, or with tags, fused parts or gaps): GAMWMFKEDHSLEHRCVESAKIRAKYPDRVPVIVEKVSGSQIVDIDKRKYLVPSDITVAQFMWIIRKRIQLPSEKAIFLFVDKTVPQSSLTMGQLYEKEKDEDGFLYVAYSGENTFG

B1: UBA5 C-terminal region R2, residues 359–376 (peptide)
chain: GAMGPVPDLPEGITVAYTIPK
notes: N-terminal cloning artefact left after TEV cleavage (vector pET39_Ub19); also called isolated R2 peptide; source: E. coli T7 Express, purified (His Trap IMAC, TEV cleavage, reverse IMAC, Superdex gel filtration); not shown: modified ubiquitin tag (Ub19), N-terminal, cleaved
> 100 µM: all assays above
